In US20150344570A1 (published 2015):

T1: FcγRIIb extracellular domain with C-terminal His tag (human, UniProt P31994 43-217)
T1 construct: extracellular domain; also called FcgRIIb; CD32B; not shown: His tag at the C terminus
T1 sequence (looked up): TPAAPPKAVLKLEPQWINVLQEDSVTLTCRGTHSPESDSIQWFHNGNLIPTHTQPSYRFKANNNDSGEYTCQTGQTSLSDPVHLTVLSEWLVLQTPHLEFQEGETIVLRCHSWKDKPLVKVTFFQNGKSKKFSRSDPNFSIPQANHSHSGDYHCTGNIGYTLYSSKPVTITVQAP


Legend:
[1] = target: T2, FcγRIa extracellular domain with C-terminal His tag (human, UniProt P12314 16-292); assay: SPR; He/Con_1a divided by He/Con_2b (FcγRIa against FcγRIIb)
T2 construct: extracellular domain; also called FcgRI; CD64; not shown: His tag at the C terminus
T2 sequence (P12314 16-292): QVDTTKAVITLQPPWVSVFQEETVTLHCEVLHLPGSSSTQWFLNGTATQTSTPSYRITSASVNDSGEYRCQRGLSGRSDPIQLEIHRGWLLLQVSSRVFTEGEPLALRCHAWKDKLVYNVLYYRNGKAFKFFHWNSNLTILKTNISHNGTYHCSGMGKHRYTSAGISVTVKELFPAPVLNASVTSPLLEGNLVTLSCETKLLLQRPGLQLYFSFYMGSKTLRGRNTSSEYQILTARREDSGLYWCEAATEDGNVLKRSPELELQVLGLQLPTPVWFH

[2] = target: T1, FcγRIIb extracellular domain with …; assay: SPR (Biacore), antibody captured, FcγR analyte; relative to GpH7-A5/GpH7-B3/GpL16-k0 = 100
[3] = target: T2, FcγRIa extracellular domain with …; assay: as above

He_1a/2b (Ia/IIb) [1] [ratio] | He/Con_2b [2] | He/Con_1a [3] | Binder
1.24 | 80 % of HeCon Ab | 99.1 % of HeCon Ab | GpH7-A5/GpH7-B3 variant P238_07I/GpL16-k0 (antibody, human IgG1, kappa, Heterodimerized anti-glypican-3 IgG1; mutation only in the GpH7-B3 H chain; also called He Ab) heavy 1: not shown heavy 2: not shown light: DIVMTQSPLSLPVTPGEPASISCQASESLVHSNRNTYLHWYLQKPGQSPQLLIYKVSNRFSGVPDRFSGSGSGTDFTLKISRVEAEDVGVYYCSQNTHVPPTFGQGTKVEIERTVAAPSVFIFPPSDEQLKSGTASVVCLLNNFYPREAKVQWKVDNALQSGNSQESVTEQDSKDSTYSLSSTLTLSKADYEKHKVYACEVTHQGLSSPVTKSFNRGEC
4.27 | 18.1 % of HeCon Ab | 77.4 % of HeCon Ab | GpH7-A5/GpH7-B3 variant P238_11K/GpL16-k0 (antibody, human IgG1, kappa, Heterodimerized anti-glypican-3 IgG1; mutation only in the GpH7-B3 H chain; also called He Ab) heavy 1: not shown heavy 2: not shown light: DIVMTQSPLSLPVTPGEPASISCQASESLVHSNRNTYLHWYLQKPGQSPQLLIYKVSNRFSGVPDRFSGSGSGTDFTLKISRVEAEDVGVYYCSQNTHVPPTFGQGTKVEIERTVAAPSVFIFPPSDEQLKSGTASVVCLLNNFYPREAKVQWKVDNALQSGNSQESVTEQDSKDSTYSLSSTLTLSKADYEKHKVYACEVTHQGLSSPVTKSFNRGEC
1.66 | 56 % of HeCon Ab | 92.9 % of HeCon Ab | GpH7-A5/GpH7-B3 variant P238_01G/GpL16-k0 (antibody, human IgG1, kappa, Heterodimerized anti-glypican-3 IgG1; mutation only in the GpH7-B3 H chain; also called He Ab) heavy 1: not shown heavy 2: not shown light: DIVMTQSPLSLPVTPGEPASISCQASESLVHSNRNTYLHWYLQKPGQSPQLLIYKVSNRFSGVPDRFSGSGSGTDFTLKISRVEAEDVGVYYCSQNTHVPPTFGQGTKVEIERTVAAPSVFIFPPSDEQLKSGTASVVCLLNNFYPREAKVQWKVDNALQSGNSQESVTEQDSKDSTYSLSSTLTLSKADYEKHKVYACEVTHQGLSSPVTKSFNRGEC

The next lines start with the binder.

Binder | He_1a/2b (Ia/IIb) [1] [ratio] | He/Con_2b [2] | He/Con_1a [3]
GpH7-A5/GpH7-B3 variant G236_06M/GpL16-k0 (antibody, human IgG1, kappa, Heterodimerized anti-glypican-3 IgG1; mutation only in the GpH7-B3 H chain; also called He Ab) heavy 1: not shown heavy 2: not shown light: DIVMTQSPLSLPVTPGEPASISCQASESLVHSNRNTYLHWYLQKPGQSPQLLIYKVSNRFSGVPDRFSGSGSGTDFTLKISRVEAEDVGVYYCSQNTHVPPTFGQGTKVEIERTVAAPSVFIFPPSDEQLKSGTASVVCLLNNFYPREAKVQWKVDNALQSGNSQESVTEQDSKDSTYSLSSTLTLSKADYEKHKVYACEVTHQGLSSPVTKSFNRGEC | 2.13 | 45.5 % of HeCon Ab | 96.7 % of HeCon Ab
GpH7-A5/GpH7-B3 variant G237_14T/GpL16-k0 (antibody, human IgG1, kappa, Heterodimerized anti-glypican-3 IgG1; mutation only in the GpH7-B3 H chain; also called He Ab) heavy 1: not shown heavy 2: not shown light: DIVMTQSPLSLPVTPGEPASISCQASESLVHSNRNTYLHWYLQKPGQSPQLLIYKVSNRFSGVPDRFSGSGSGTDFTLKISRVEAEDVGVYYCSQNTHVPPTFGQGTKVEIERTVAAPSVFIFPPSDEQLKSGTASVVCLLNNFYPREAKVQWKVDNALQSGNSQESVTEQDSKDSTYSLSSTLTLSKADYEKHKVYACEVTHQGLSSPVTKSFNRGEC | 1.5 | 54.8 % of HeCon Ab | 82.3 % of HeCon Ab
GpH7-A5/GpH7-B3 variant G236_08L/GpL16-k0 (antibody, human IgG1, kappa, Heterodimerized anti-glypican-3 IgG1; mutation only in the GpH7-B3 H chain; also called He Ab) heavy 1: not shown heavy 2: not shown light: DIVMTQSPLSLPVTPGEPASISCQASESLVHSNRNTYLHWYLQKPGQSPQLLIYKVSNRFSGVPDRFSGSGSGTDFTLKISRVEAEDVGVYYCSQNTHVPPTFGQGTKVEIERTVAAPSVFIFPPSDEQLKSGTASVVCLLNNFYPREAKVQWKVDNALQSGNSQESVTEQDSKDSTYSLSSTLTLSKADYEKHKVYACEVTHQGLSSPVTKSFNRGEC | 2.97 | 26.8 % of HeCon Ab | 79.6 % of HeCon Ab
GpH7-A5/GpH7-B3 variant G237_16H/GpL16-k0 (antibody, human IgG1, kappa, Heterodimerized anti-glypican-3 IgG1; mutation only in the GpH7-B3 H chain; also called He Ab) heavy 1: not shown heavy 2: not shown light: DIVMTQSPLSLPVTPGEPASISCQASESLVHSNRNTYLHWYLQKPGQSPQLLIYKVSNRFSGVPDRFSGSGSGTDFTLKISRVEAEDVGVYYCSQNTHVPPTFGQGTKVEIERTVAAPSVFIFPPSDEQLKSGTASVVCLLNNFYPREAKVQWKVDNALQSGNSQESVTEQDSKDSTYSLSSTLTLSKADYEKHKVYACEVTHQGLSSPVTKSFNRGEC | 1.32 | 55.2 % of HeCon Ab | 72.6 % of HeCon Ab
GpH7-A5/GpH7-B3 variant G236_14T/GpL16-k0 (antibody, human IgG1, kappa, Heterodimerized anti-glypican-3 IgG1; mutation only in the GpH7-B3 H chain; also called He Ab) heavy 1: not shown heavy 2: not shown light: DIVMTQSPLSLPVTPGEPASISCQASESLVHSNRNTYLHWYLQKPGQSPQLLIYKVSNRFSGVPDRFSGSGSGTDFTLKISRVEAEDVGVYYCSQNTHVPPTFGQGTKVEIERTVAAPSVFIFPPSDEQLKSGTASVVCLLNNFYPREAKVQWKVDNALQSGNSQESVTEQDSKDSTYSLSSTLTLSKADYEKHKVYACEVTHQGLSSPVTKSFNRGEC | 1.59 | 57.8 % of HeCon Ab | 92.2 % of HeCon Ab
GpH7-A5/GpH7-B3 variant G236_19Q/GpL16-k0 (antibody, human IgG1, kappa, Heterodimerized anti-glypican-3 IgG1; mutation only in the GpH7-B3 H chain; also called He Ab) heavy 1: not shown heavy 2: not shown light: DIVMTQSPLSLPVTPGEPASISCQASESLVHSNRNTYLHWYLQKPGQSPQLLIYKVSNRFSGVPDRFSGSGSGTDFTLKISRVEAEDVGVYYCSQNTHVPPTFGQGTKVEIERTVAAPSVFIFPPSDEQLKSGTASVVCLLNNFYPREAKVQWKVDNALQSGNSQESVTEQDSKDSTYSLSSTLTLSKADYEKHKVYACEVTHQGLSSPVTKSFNRGEC | 1.98 | 46.6 % of HeCon Ab | 92.1 % of HeCon Ab
